Measurements: patent US20130136721A1, “Compositions and Methods of Generating a Differentiated Mesodermal Cell” (THE JOHNS HOPKINS UNIVERSITY, priority 2010, published 2013)
Entries after “also recorded” stand apart in the source; their conditions may differ.

How the values were obtained:
[1] = tested on: H9 hESC; test: Beating hEB assay (contracting hEB after forced aggregation cardiac differentiation); type: cell-based, human; conditions: for effect on cardiac differentiation, phase 2 medium: supplement in d0-d2 medium; for effect on cardiac differentiation, phase 2 medium / effect on cardiac differentiation, phase 3 medium: contracting hEB d9; for effect on cardiac differentiation, phase 3 medium: supplement in d2-d4 medium
Source text: The cardiac differentiation protocol was divided into four distinct phases for optimization (FIG. 3A): phase 1: uniform undifferentiated growth; phase 2: hEB formation/mesoderm induction; phase 3: hEB cardiac specification; phase 4: contracting cardiomyocyte development. […] After an initial round of optimizations had been completed, optimizations was repeated a second time to account for the new media formulations and then a third time to optimize the final media formulation. In some cases fourth and fifth repeats were performed to improve the statistical power of the results. For each variable tested, the bell-curve distribution of dose-response was determined. Results shown are averages of the 2nd-5th replicates (FIG. 2B).
For forced aggregation hEB differentiations, confluent hESC or hiPSC which had been grown on a commercially available extracellular matrix, Geltrex (Invitrogen) as monolayers for 3 to 13 passages were passaged with TrypLE Select and seeded at 2.5×10^6 per T25 flask. After 24 hours growth, cells were washed with PBS and treated with room temperature TrypLE Select for 1 minute at 37° C. Cells were seeded at 5000 cells per well in 96-well V-bottom uncoated plates (249952, NUNC) in 100 μL per well RPMI+PVA medium consisting of RPMI Media 1640 (with L-Glutamine), 4 mg mL-1 polyvinyl alcohol (P8136, Sigma, dissolved in RPMI at 4° C. for at least 72 hours, mixing by inversion every day), 1% chemically defined lipid concentrate, 10 μg mL-1 recombinant human insulin (Sigma), 400 μM 1-thioglycerol (Sigma), 25 ng mL-1 BMP4 and 5 ng mL-1 FGF2 (both from R&D systems), 1 μM Y-27632 (Calbiochem). This medium is not stable and was made fresh for each experiment. After 48 hours (on day 2) medium was aspirated with a Costar 8-channel aspirator (Corning) and replaced with RPMI+FBS medium consisting RPMI Media 1640, 20% characterized FBS (Hyclone), 400 μM 1-thioglycerol. On day 4 media was changed to RPMI+PVA without growth factors and hEB were transferred to 96-well U-bottom tissue culture treated plates (650180, Greiner Bio-One). Media was changed on d7 and every 3 days afterwards. hEB were visually assessed for contraction on d9 using a Nikon Eclipse Ti inverted tissue culture microscope with a TOKAI-HIT heated stage (Nikon). Images were captured using NIS-Elements (Nikon). […] For traditional cardiac differentiations using FBS, undirected differentiation was performed as previously described (Kehat et al. J Clin Invest 108, 407-414 (2001)): briefly, confluent H9 hESC grown as colonies on MEF were treated with collagenase IV for 5 minutes at 37° C. then washed from the plate using a 5 mL pipette. Cell clusters were then transferred to Petri dishes in 20% FBS medium for 7 days. hEB were then transferred to gelatin coated tissue culture plates. Media was changed every 3 days.
One single replicate consists of one 96-well plate. Repeat replicates were performed 1-4 months apart using a different vial of cells. Each experiment was repeated at least 3 times representing at least 288 hEB. Total number of hEB assessed in this work exceeds 80,000. Wells in which no hEB was detected due to pipeting error were excluded and accounted for approximately 1-5% of wells. P-values were established using unpaired two-tailed Student's t-test.

[2] = tested on: iPS(IMR90)-1 hiPSC; test: as above; type: cell-based, human; conditions: d0-d2
Source text: The cardiac differentiation protocol was divided into four distinct phases for optimization (FIG. 3A): phase 1: uniform undifferentiated growth; phase 2: hEB formation/mesoderm induction; phase 3: hEB cardiac specification; phase 4: contracting cardiomyocyte development. A simple beating hEB assay was used to sequentially assess improvements in cardiac differentiation in each of these four phases by counting the number of hEB contracting after nine days of differentiation, a time point that was identified as the day of maximum percentage contraction in the enhanced ‘prototype’ version of the protocol (FIG. 1B). After an initial round of optimizations had been completed, optimizations was repeated a second time to account for the new media formulations and then a third time to optimize the final media formulation. […] For each variable tested, the bell-curve distribution of dose-response was determined. […]
For forced aggregation hEB differentiations, confluent hESC or hiPSC which had been grown on a commercially available extracellular matrix, Geltrex (Invitrogen) as monolayers for 3 to 13 passages were passaged with TrypLE Select and seeded at 2.5×10^6 per T25 flask. […] Media was changed on d7 and every 3 days afterwards. hEB were visually assessed for contraction on d9 using a Nikon Eclipse Ti inverted tissue culture microscope with a TOKAI-HIT heated stage (Nikon). […]

B1: NODAL: growth factor titrated between 1-100 ng mL-1 (protein, UniProt Q96S42 238-347, looked up)
Nodal homolog: HHLPDRSQLCRKVKFQVDFNLIGWGSWIIYPKQYNAYRCEGECPNPVGEEFHPTNHAYIQSLLKRYQPHRVPSTCCAPVKTKPLSMLYVDNGRVLLDHHKDMIVEECGCL
effect on cardiac differentiation, phase 2 medium [1]: none were found to have the same potency as BMP4

B2: DKK1: additional supplement to serum-free d2-d4 medium (protein, UniProt O94907 32-266, looked up)
Dickkopf-related protein 1: TLNSVLNSNAIKNLPPPLGGAAGHPGSAVSAAPGILYPGGNKYQTIDNYQPYPCAEDEECGTDEYCASPTRGGDAGVQICLACRKRRKRCMRHAMCCPGNYCKNGICVSSDQNHFRGEIEETITESFGNDHSTLDGYSRRTTLSSKMYHTKGQEGSVCLRSSDCASGLCCARHFWSKICKPVLKEGQVCTKHRRKGSHGLEIFQRCYCGEGLSCRIQKDHHQASNSSRLHTCQRH
effect on cardiac differentiation, xeno- and serum-free d2-d4 medium ([1]; supplement in serum-free d2-d4 medium): did not further enhance differentiation

B3: BMP4: bone morphogenic protein 4, mesodermal morphogen growth factor (protein, UniProt P12644 293-408, looked up)
Bone morphogenetic protein 4: SPKHHSQRARKKNKNCRRHSLYVDFSDVGWNDWIVAPPGYQAFYCHGDCPFPLADHLNSTNHAIVQTLVNSVNSSIPKACCVPTELSAISMLYLDEYDKVVLKNYQEMVVEGCGCR
most effective BMP4 concentration ([1]; d0-d2): 25 ng/mL
effect on cardiac differentiation, phase 3 medium [1]: did not further enhance this phase; also recorded: did not enhance cardiac differentiation
most effective BMP4 concentration [2]: 5 ng/mL

B4: transferrin: bovine transferrin media supplement (protein, UniProt Q29443 20-704, looked up)
Serotransferrin: DPERTVRWCTISTHEANKCASFRENVLRILESGPFVSCVKKTSHMDCIKAISNNEADAVTLDGGLVYEAGLKPNNLKPVVAEFHGTKDNPQTHYYAVAVVKKDTDFKLNELRGKKSCHTGLGRSAGWNIPMAKLYKELPDPQESIQRAAANFFSASCVPCADQSSFPKLCQLCAGKGTDKCACSNHEPYFGYSGAFKCLMEGAGDVAFVKHSTVFDNLPNPEDRKNYELLCGDNTRKSVDDYQECYLAMVPSHAVVARTVGGKEDVIWELLNHAQEHFGKDKPDNFQLFQSPHGKDLLFKDSADGFLKIPSKMDFELYLGYEYVTALQNLRESKPPDSSKDECMVKWCAIGHQERTKCDRWSGFSGGAIECETAENTEECIAKIMKGEADAMSLDGGYLYIAGKCGLVPVLAENYKTEGESCKNTPEKGYLAVAVVKTSDANINWNNLKDKKSCHTAVDRTAGWNIPMGLLYSKINNCKFDEFFSAGCAPGSPRNSSLCALCIGSEKGTGKECVPNSNERYYGYTGAFRCLVEKGDVAFVKDQTVIQNTDGNNNEAWAKNLKKENFEVLCKDGTRKPVTDAENCHLARGPNHAVVSRKDKATCVEKILNKQQDDFGKSVTDCTSNFCLFQSNSKDLLFRDDTKCLASIAKKTYDSYLGDDYVRAMTNLRQCSTSKLLEACTFHKP
effect on cardiac differentiation, phase 2 medium [1]: either did not further enhance differentiation or had negative effects on differentiation
effect on cardiac differentiation, phase 3 medium [1]: Neither transferrin, L-ascorbic acid, lipids or NEAA enhanced this phase of differentiation
effect on cardiac differentiation, phase 4 medium ([1]; supplement in d4 onwards medium): not required

B5: activin A: growth factor titrated between 1-100 ng mL-1 (protein, UniProt P08476 311-426, looked up)
Inhibin beta A chain: GLECDGKVNICCKKQFFVSFKDIGWNDWIIAPSGYHANYCEGECPSHIAGTSGSSLSFHSTVINHYRMRGHSPFANLKSCCVPTKLRPMSMLYYDDGQNIIKKDIQNMIVEECGCS
effect on cardiac differentiation, phase 2 medium [1]: none were found to have the same potency as BMP4

B6: TDGF1: growth factor titrated between 1-100 ng mL-1 (protein, UniProt P13385 31-150, looked up)
Protein Cripto: LGHQEFARPSRGYLAFRDDSIWPQEEPAIRPRSSQRVPPMGIQHSKELNRTCCLNGGTCMLGSFCACPPSFYGRNCEHDVRKENCGSVPHDTWLPKKCSLCKCWHGQLRCFPQAFLPGCD
effect on cardiac differentiation, phase 2 medium [1]: none were found to have the same potency as BMP4

B7: BMP6: growth factor titrated between 1-100 ng mL-1 (protein, UniProt P22004 375-513, looked up)
Bone morphogenetic protein 6: SASSRRRQQSRNRSTQSQDVARVSSASDYNSSELKTACRKHELYVSFQDLGWQDWIIAPKGYAANYCDGECSFPLNAHMNATNHAIVQTLVHLMNPEYVPKPCCAPTKLNAISVLYFDDNSNVILKKYRNMVVRACGCH
effect on cardiac differentiation, phase 2 medium [1]: none were found to have the same potency as BMP4
